# IntAct's records for PubMed 19013276
# B1: Cell cycle serine/threonine-protein kinase CDC5/MSD2 (Saccharomyces cerevisiae), P32562 (parent)
# chain: MSLGPLKAINDKQLNTRSKLVHTPIKGNTADLVGKENHFKQTKRLDPNNDHHHQPAQKKKREKLSALCKTPPSLIKTRGKDYHRGHFLGEGGFARCFQIKDDSGEIFAAKTVAKASIKSEKTRKKLLSEIQIHKSMSHPNIVQFIDCFEDDSNVYILLEICPNGSLMELLKRRKVLTEPEVRFFTTQICGAIKYMHSRRVIHRDLKLGNIFFDSNYNLKIGDFGLAAVLANESERKYTICGTPNYIAPEVLMGKHSGHSFEVDIWSLGVMLYALLIGKPPFQARDVNTIYERIKCRDFSFPRDKPISDEGKILIRDILSLDPIERPSLTEIMDYVWFRGTFPPSIPSTVMSEAPNFEDIPEEQSLVNFKDCMEKSLLLESMSSDKIQRQKRDYISSIKSSIDKLEEYHQNRPFLPHSLSPGGTKQKYKEVVDIEAQRRLNDLAREARIRRAQQAVLRKELIATSTNVIKSEISLRILASECHLTLNGIVEAEAQYKMGGLPKSRLPKIKHPMIVTKWVDYSNKHGFSYQLSTEDIGVLFNNGTTVLRLADAEEFWYISYDDREGWVASHYLLSEKPRELSRHLEVVDFFAKYMKANLSRVSTFGREEYHKDDVFLRRYTRYKPFVMFELSDGTFQFNFKDHHKMAISDGGKLVTYISPSHESTTYPLVEVLKYGEIPGYPESNFREKLTLIKEGLKQKSTIVTVD
# partner: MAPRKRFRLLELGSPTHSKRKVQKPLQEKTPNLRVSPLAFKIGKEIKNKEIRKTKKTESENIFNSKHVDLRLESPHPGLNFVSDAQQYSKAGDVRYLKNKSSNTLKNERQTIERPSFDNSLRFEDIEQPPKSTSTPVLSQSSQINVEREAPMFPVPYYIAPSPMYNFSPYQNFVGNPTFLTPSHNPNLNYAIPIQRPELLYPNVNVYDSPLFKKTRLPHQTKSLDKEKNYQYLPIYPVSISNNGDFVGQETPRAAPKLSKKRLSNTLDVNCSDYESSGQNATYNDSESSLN
# Variants of: B1
# Conditions: with spo13_yeast SPO13, P23624
row,Variant,effect of a mutation on the interaction
1,W517A;V518A;L530A,decreasing interaction

# Variants of: B1
# Conditions: with spo13_yeast SPO13, P23624
# Remark: another data set of the same source
row,Variant,effect of a mutation on the interaction
1,W517A;V518A;L530A,decreasing interaction
